B1: NLV2 TCR alpha chain (CDR3α only) (parent)
chain: AGPMKTSYDKVI
partner: NLVGMVATV
B2: NLV2 TCR alpha chain (CDR3α only) (parent)
chain: AGPMKTSYDKVI

What was measured:
[1] = variants of: B1; assay: T-Switch: Jurkat TCRβ−/− cells expressing a CDR3 saturation-mutagenesis library, stained with two peptide-HLA-A*02:01 tetramers (original and novel peptide) plus anti-CD3, FACS-sorted into four gates, gDNA sequenced; conditions: with HLA-A*02:01 with peptide … (NLV 2-2, the original bait), tetramers 1 µg/mL, 30 min on ice, DP and SW gates expanded about 10 days between rounds ('two to three rounds of selection' in the Methods), gate SP: higher = more of the variant in the gate that binds the original peptide and not the novel one = retained original binding. Fold enrichment of the CDR3 variant in one FACS gate of a two-tetra, unresolved parent, parent is a CDR3 fragment, scale: fold enrichment, numbering: sequential-on-construct, sequence …
[2] = variants of: B2; assay: as above; conditions: tetramers 1 µg/mL, 30 min on ice, SP, DP and SW gates expanded about 10 days between rounds ('two to three rounds of selection' in the Methods), unresolved parent, parent is a CDR3 fragment, scale: fold enrichment, numbering: sequential-on-construct, sequence starts at 1
[3] = with both tetramers (double-negative gate, binds neither): HLA-A*02:01 with … and with …, gate DN: OPPOSITE: higher = more of the variant in the gate that binds neither peptide = LESS binding (or no expression; inferred). Fold enrichment of the CDR3 variant in one FACS gate of a two-tetram
[4] = with both tetramers (double-positive gate): HLA-A*02:01 with … and with …, gate DP: higher = more of the variant in the gate that binds both peptides. Fold enrichment of the CDR3 variant in one FACS gate of a two-tetramer stain. SP/DP/SW gates were expanded and re-sorted bef

| Variant | enrichment [1] | enrichment [2, 3] | enrichment [2, 4] |
| --- | --- | --- | --- |
| […] (CDR3 as printed); A1C derived by comparing it with the table's wild-type CDR3 AGPMKTSYDKVI | 0.571 | – | – |
| […] (CDR3 as printed); A1P derived by comparing it with the table's wild-type CDR3 AGPMKTSYDKVI | 2.46 | – | – |
| […] (CDR3 as printed); A1H derived by comparing it with the table's wild-type CDR3 AGPMKTSYDKVI | 1.05 | – | – |
| […] (CDR3 as printed); A1I derived by comparing it with the table's wild-type CDR3 AGPMKTSYDKVI | 0.473 | – | – |
| […] (CDR3 as printed); A1M derived by comparing it with the table's wild-type CDR3 AGPMKTSYDKVI | 0.103 | – | – |
| […] (CDR3 as printed); A1F derived by comparing it with the table's wild-type CDR3 AGPMKTSYDKVI | 2.07 | – | – |
| […] (CDR3 as printed); A1G derived by comparing it with the table's wild-type CDR3 AGPMKTSYDKVI | 0 | – | – |
| […] (CDR3 as printed); A1N derived by comparing it with the table's wild-type CDR3 AGPMKTSYDKVI | 0.476 | – | – |
| […] (CDR3 as printed); A1E derived by comparing it with the table's wild-type CDR3 AGPMKTSYDKVI | 0.186 | – | – |
| […] (CDR3 as printed); A1K derived by comparing it with the table's wild-type CDR3 AGPMKTSYDKVI | 0 | – | – |
| […] (CDR3 as printed); A1Q derived by comparing it with the table's wild-type CDR3 AGPMKTSYDKVI | 0 | – | – |
| […] (CDR3 as printed); A1L derived by comparing it with the table's wild-type CDR3 AGPMKTSYDKVI | 0 | – | – |
| […] (CDR3 as printed); A1D derived by comparing it with the table's wild-type CDR3 AGPMKTSYDKVI | 0 | – | – |
| […] (CDR3 as printed); V11H derived by comparing it with the table's wild-type CDR3 AGPMKTSYDKVI | – | 0.891 | 0 |
| […] (CDR3 as printed); V11R derived by comparing it with the table's wild-type CDR3 AGPMKTSYDKVI | – | 1.26 | 0 |
| […] (CDR3 as printed); Y8Q derived by comparing it with the table's wild-type CDR3 AGPMKTSYDKVI | – | 0.629 | 0 |
| […] (CDR3 as printed); T6V derived by comparing it with the table's wild-type CDR3 AGPMKTSYDKVI | – | 0.56 | 0 |
| […] (CDR3 as printed); K10E derived by comparing it with the table's wild-type CDR3 AGPMKTSYDKVI | – | 1.27 | 0 |
| […] (CDR3 as printed); K10I derived by comparing it with the table's wild-type CDR3 AGPMKTSYDKVI | – | 1.1 | 0 |
| […] (CDR3 as printed); M4P derived by comparing it with the table's wild-type CDR3 AGPMKTSYDKVI | – | 1 | 0 |
| […] (CDR3 as printed); K5D derived by comparing it with the table's wild-type CDR3 AGPMKTSYDKVI | – | 0.812 | 0 |
| […] (CDR3 as printed); M4L derived by comparing it with the table's wild-type CDR3 AGPMKTSYDKVI | – | 0.995 | 0 |

| Variant | enrichment [1] | enrichment [2, 3] | enrichment [2, 4] |
| --- | --- | --- | --- |
| […] (CDR3 as printed); K5E derived by comparing it with the table's wild-type CDR3 AGPMKTSYDKVI | – | 0.392 | 0 |
| […] (CDR3 as printed); D9Y derived by comparing it with the table's wild-type CDR3 AGPMKTSYDKVI | – | 1.09 | 0 |
| […] (CDR3 as printed); I12P derived by comparing it with the table's wild-type CDR3 AGPMKTSYDKVI | – | 1.18 | 0 |
| […] (CDR3 as printed); M4C derived by comparing it with the table's wild-type CDR3 AGPMKTSYDKVI | – | 0.681 | 0 |
| […] (CDR3 as printed); G2Q derived by comparing it with the table's wild-type CDR3 AGPMKTSYDKVI | – | 0.677 | 0 |
| […] (CDR3 as printed); T6S derived by comparing it with the table's wild-type CDR3 AGPMKTSYDKVI | – | 1.05 | 0 |
| […] (CDR3 as printed); D9I derived by comparing it with the table's wild-type CDR3 AGPMKTSYDKVI | – | 1.01 | 0 |
| […] (CDR3 as printed); K10T derived by comparing it with the table's wild-type CDR3 AGPMKTSYDKVI | – | 1.24 | 0 |
| […] (CDR3 as printed); I12A derived by comparing it with the table's wild-type CDR3 AGPMKTSYDKVI | – | 0.854 | 0 |
| […] (CDR3 as printed); Y8H derived by comparing it with the table's wild-type CDR3 AGPMKTSYDKVI | – | 0.969 | 0 |
| […] (CDR3 as printed); I12Y derived by comparing it with the table's wild-type CDR3 AGPMKTSYDKVI | – | 1.06 | 0 |
| […] (CDR3 as printed); T6Q derived by comparing it with the table's wild-type CDR3 AGPMKTSYDKVI | – | 1.14 | 0 |
| […] (CDR3 as printed); G2Y derived by comparing it with the table's wild-type CDR3 AGPMKTSYDKVI | – | 0.902 | 0 |
| […] (CDR3 as printed); V11A derived by comparing it with the table's wild-type CDR3 AGPMKTSYDKVI | – | 1.13 | 0 |
| […] (CDR3 as printed); S7H derived by comparing it with the table's wild-type CDR3 AGPMKTSYDKVI | – | 0.722 | 0 |
| […] (CDR3 as printed); P3E derived by comparing it with the table's wild-type CDR3 AGPMKTSYDKVI | – | 1.15 | 0 |
| […] (CDR3 as printed); S7T derived by comparing it with the table's wild-type CDR3 AGPMKTSYDKVI | – | 0.968 | 0 |
| […] (CDR3 as printed); A1Y derived by comparing it with the table's wild-type CDR3 AGPMKTSYDKVI | – | 0.935 | 0 |
| […] (CDR3 as printed); P3Y derived by comparing it with the table's wild-type CDR3 AGPMKTSYDKVI | – | 1.08 | 0 |
| […] (CDR3 as printed); P3T derived by comparing it with the table's wild-type CDR3 AGPMKTSYDKVI | – | 0.962 | 0 |
| […] (CDR3 as printed); S7Y derived by comparing it with the table's wild-type CDR3 AGPMKTSYDKVI | – | 0.999 | 0 |
| […] (CDR3 as printed); G2I derived by comparing it with the table's wild-type CDR3 AGPMKTSYDKVI | – | 1.1 | 0 |

| Variant | enrichment [1] | enrichment [2, 3] | enrichment [2, 4] |
| --- | --- | --- | --- |
| […] (CDR3 as printed); P3Q derived by comparing it with the table's wild-type CDR3 AGPMKTSYDKVI | – | 1.16 | 0 |
| […] (CDR3 as printed); I12W derived by comparing it with the table's wild-type CDR3 AGPMKTSYDKVI | – | 0.924 | 0 |
| […] (CDR3 as printed); V11Q derived by comparing it with the table's wild-type CDR3 AGPMKTSYDKVI | – | 1.35 | 0 |
| […] (CDR3 as printed); T6W derived by comparing it with the table's wild-type CDR3 AGPMKTSYDKVI | – | 1.07 | 0 |
| […] (CDR3 as printed); T6C derived by comparing it with the table's wild-type CDR3 AGPMKTSYDKVI | – | 0.924 | 0 |
| […] (CDR3 as printed); P3V derived by comparing it with the table's wild-type CDR3 AGPMKTSYDKVI | – | 1.02 | 0 |
| […] (CDR3 as printed); K5M derived by comparing it with the table's wild-type CDR3 AGPMKTSYDKVI | – | 0.901 | 0 |
| […] (CDR3 as printed); T6G derived by comparing it with the table's wild-type CDR3 AGPMKTSYDKVI | – | 1.02 | 0 |
| […] (CDR3 as printed); I12Q derived by comparing it with the table's wild-type CDR3 AGPMKTSYDKVI | – | 1.17 | 0 |
| […] (CDR3 as printed); D9A derived by comparing it with the table's wild-type CDR3 AGPMKTSYDKVI | – | 1.01 | 0 |
| […] (CDR3 as printed); I12M derived by comparing it with the table's wild-type CDR3 AGPMKTSYDKVI | – | 0.63 | 0 |
| […] (CDR3 as printed); V11G derived by comparing it with the table's wild-type CDR3 AGPMKTSYDKVI | – | 0.956 | 0 |
| […] (CDR3 as printed); S7P derived by comparing it with the table's wild-type CDR3 AGPMKTSYDKVI | – | 0.995 | 0 |
| […] (CDR3 as printed); K5N derived by comparing it with the table's wild-type CDR3 AGPMKTSYDKVI | – | 1.12 | 0 |
| […] (CDR3 as printed); D9W derived by comparing it with the table's wild-type CDR3 AGPMKTSYDKVI | – | 1.34 | 0 |
| […] (CDR3 as printed); I12S derived by comparing it with the table's wild-type CDR3 AGPMKTSYDKVI | – | 0.885 | 0 |
| […] (CDR3 as printed); V11K derived by comparing it with the table's wild-type CDR3 AGPMKTSYDKVI | – | 1.49 | 0 |
| […] (CDR3 as printed); D9F derived by comparing it with the table's wild-type CDR3 AGPMKTSYDKVI | – | 1.2 | 0 |
| […] (CDR3 as printed); S7N derived by comparing it with the table's wild-type CDR3 AGPMKTSYDKVI | – | 1.31 | 0 |
| […] (CDR3 as printed); Y8L derived by comparing it with the table's wild-type CDR3 AGPMKTSYDKVI | – | 1 | 0 |

Reference: paper PMC13397619
